Measurements: US5993823

What was measured:
[1] = molecular target: SIV NEF 125-138 peptide on autologous macaque B-LCL (SIV; rhesus macaque (Macaca mulatta))
[2] = molecular target: SIV NEF 125-147 peptide (LP2) on autologous macaque B-LCL (SIV; rhesus macaque (Macaca mulatta))
[3] = molecular target: SIV NEF 133-147 peptide on autologous macaque B-LCL (SIV; rhesus macaque (Macaca mulatta))
[4] = molecular target: SIV NEF 155-169 peptide on autologous macaque B-LCL (SIV; rhesus macaque (Macaca mulatta))
[5] = molecular target: SIV NEF 155-178 peptide (LP3) on autologous macaque B-LCL (SIV; rhesus macaque (Macaca mulatta))
[6] = molecular target: SIV NEF 160-176 peptide on autologous macaque B-LCL (SIV; rhesus macaque (Macaca mulatta))
[7] = molecular target: SIV NEF 164-178 peptide on autologous macaque B-LCL (SIV; rhesus macaque (Macaca mulatta))
[8] = molecular target: SIV NEF 201-225 peptide (LP4) on autologous macaque B-LCL (SIV; rhesus macaque (Macaca mulatta))
[9] = molecular target: SIV NEF 201-215 peptide on autologous macaque B-LCL (SIV; rhesus macaque (Macaca mulatta))
[10] = molecular target: SIV NEF 211-225 peptide on autologous macaque B-LCL (SIV; rhesus macaque (Macaca mulatta))
[11] = molecular target: SIV NEF 155-178 peptide (LP3) on autologous macaque B-LCL (SIV; rhesus macaque (Macaca mulatta)); remark: listed apart in the source
[12] = molecular target: SIV GAG 246-282 peptide (LP7) on autologous macaque B-LCL (SIV; rhesus macaque (Macaca mulatta))
[13] = molecular target: SIV GAG 165-185 peptide on autologous macaque B-LCL (SIV; rhesus macaque (Macaca mulatta))
[14] = molecular target: SIV GAG 165-195 peptide (LP6) on autologous macaque B-LCL (SIV; rhesus macaque (Macaca mulatta))
[15] = molecular target: SIV GAG 176-195 peptide on autologous macaque B-LCL (SIV; rhesus macaque (Macaca mulatta))

## CTL line from PBMC of immunized macaque RS20, restimulated with the mixture of the 7 peptides (cells without a defined receptor)
[1]
  specific 51Cr release (CRT), E/T 60:1 and 20:1 (percent specific chromium release): 85
[2]
  specific 51Cr release (CRT), E/T 60:1 and 20:1 (percent specific chromium release): 72
[3]
  specific 51Cr release (CRT), E/T 60:1 and 20:1 (percent specific chromium release): 4
[4]
  specific 51Cr release (CRT) (percent specific chromium release): 14
[5]
  specific 51Cr release (CRT) (percent specific chromium release): 87
[6]
  specific 51Cr release (CRT) (percent specific chromium release): 6
[7]
  specific 51Cr release (CRT) (percent specific chromium release): 49

## CTL line from PBMC of immunized macaque RS21, restimulated with the mixture of the 7 peptides (cells without a defined receptor)
[8]
  specific 51Cr release (CRT), E/T 70:1 (% specific lysis): 35

## CTL line from PBMC of immunized macaque RS23, restimulated with the mixture of the 7 peptides (cells without a defined receptor)
[8]
  specific 51Cr release (CRT), E/T 70:1 (% specific lysis): 42
[9]
  specific 51Cr release (CRT), E/T 60:1 and 20:1 (percent specific chromium release): 18
[10]
  specific 51Cr release (CRT), E/T 60:1 and 20:1 (percent specific chromium release): 0

## CTL line from PBMC of immunized macaque RS17, restimulated with the mixture of the 7 peptides (cells without a defined receptor)
[11]
  specific 51Cr release (CRT), E/T 70:1 (% specific lysis): 44
[4]
  specific 51Cr release (CRT), E/T 60:1 and 20:1 (percent specific chromium release): 0
[6]
  specific 51Cr release (CRT), E/T 60:1 and 20:1 (percent specific chromium release): 0
[7]
  specific 51Cr release (CRT), E/T 60:1 and 20:1 (percent specific chromium release): 46

## CTL line from PBMC of immunized macaque RS7, restimulated with the mixture of the 7 peptides (cells without a defined receptor)
[12]
  specific 51Cr release (CRT), E/T 70:1 (% specific lysis): 59

## CTL line from PBMC of immunized macaque RS4, restimulated with the mixture of the 7 peptides (cells without a defined receptor)
[13]
  specific 51Cr release (CRT), E/T 60:1 and 20:1 (percent specific chromium release): 8
[14]
  specific 51Cr release (CRT), E/T 60:1 and 20:1 (percent specific chromium release): 57
[15]
  specific 51Cr release (CRT), E/T 60:1 and 20:1 (percent specific chromium release): 35

## CTL line from PBMC of immunized macaque RS6, restimulated with the mixture of the 7 peptides (cells without a defined receptor)
[11]
  specific 51Cr release (CRT), E/T 70:1 (% specific lysis): 40
